Test: soluble on expression in E. coli; label from the status in PepcDB or PDB records

Sequence | soluble on expression in E. coli
ADPVMLEIFNNRFMSVAEQMGYTLQNTAHSVNIKERLDFSCAIFDGKGNLIANAPHIPVHLGSMGECVKYLIRARSVEMTAGDVYLINSPYHGGTHLPDLTVVTPMSGNLGEILFYLASRGHHADVGGVTPGSMPPDSRTIEEEGVLSEGMKIVEQGRFLEEKLRLWLGSGKYPARNPDQNVADIRAQVAANEKGLQELHRMVEEFSLETVEAYMGHVQDNAEEAVRRVIDRLEDGEFTYPLDDGNAIKVKVKIDRENRNAKIDFSGTSSQLPSNFNAPASVCLAAVLYAFRTLVKSDIPLNAGCLRPLEIIIPEGSMLKPEPPASVVAGNVETSQYIVDAIFGALGSLAASQGTMNNFTFGNADFQYYETICGGSGAGPGFSGTDAVHTHMTNSRITDPEVLETRFPVLLEEFSIRQGSGGEGEFRGGNGVVRKFRFLKDMDAAILSSHRKFPPFGLKGGMPGKCGKNTLIRRDGSVIEAGGKAELKLKSEDVFVIETPGGGGYGRPENFRPEK | not soluble
MTPFPAYVPPDFTRPDLAAAPPVRVAEAPGSGVLPAGFHATSNYPEYVHLGGGRWLLASGSRMDAVLVLDGDMLRVVEPRLVRRGDRVVVGRTENGEEGIYVHTTGFDAPAGAGGDKFTFRSRGTRESPFSRSYEELYDILRHDRDHGHIVWVLGPAVAFDRDSRAAMAGLIGGGYCHALLAGNALATHDLEAALFHTGLGQDIYTQALVAGGHYHHLDVINEVLRHGSLERAIAELGIRDGIIRACLEHRVPVVLAGSIRDDGPLPDVITDSRQAQDAMRAHARRATTVIALATQLHAIAVGNMTPSYRVLDDGTVRPVYFYIVDMSEFGADKLANRGSGQARAILTNVQDFMVNLWNNLKG | not soluble
MPRYTESEWLTDFIIDALDSGRFWGVGWLDEQKRIFTVPGRNRRERMPEGFDDFYEAFLEERRRHGLPEIPETETGLGCFGRLLRTANRARQERPFTIYKGKMKLNRWIMTPRPYKGCEGCLVYLTQEPAMKNMLKALFGIYPHDDKHREKALRRSLRKKAQRREAARKQAAAVATPTTSSAAEVSSRSQSEDTESSDSENELWVGAQGFVGRDMHSLFFEEPEPSGFGSSGQSSSLLAPDSPRPSTSQVQGPLHVHTPTDLCLPTGGLPSPVIFPHETQGLLAPPAGQSQTPFSPEGPVPSHVSGLDDCLPMVDHIEGCLLDLLSDVGQELPDLGDLGELLCETASPQGPMQSEGGEEGSTESVSVLPATHPLESSAPGASVMGSGQELPDLGDLSELLCETASPQGPMQSEGGEEGSTESVSVLPATHPLESSAPGASVMGSSFQASDNVDDFIDCIPPLCRDDRDVEDQEKADQTFYWYGSDMRPKVLTATQSVAAYLSKKQAIYKVGDKLVPLVVEVYYFGEKVKTHFDLTGGIVICSQVPEASPEHICQTVPPYKCLLPRTAHCSVDANRTLEQTLDRFSMGVVAIGTNMGIFLKGLLEYPAYFVGNASRRRIGKCRPLSHRHEIQQAFDVERHNREPEGSRYASLFLGRRPSPEYDSDHYPVILHIYLAPFYHRD | not soluble
ISRLLKNNLMDDVFNTENESFAQETRLIENEYSINLPTRFYYKKKWNDGWINVVNPFRASMVLGTPGSGKSYAIVNNYIKQQIEKGFAVYIYDYKFPDLSEIAYNHLISYLDGYKVKPKFYMINFDDPRKSHRCNPINPAFMTDISDAYEASYTIMLNLNRSWITKQGDFFVESPIILLASIIWFLKIYQGGKYCTFPHAIEFLNKKYADTFTILTSYPELENYLSPFMDAWESNAQDQLQGQLASAKIPLSRMISPALYWVMTGDDFSLDINNPEEPKILVVGNNPDRQNIYSCALGLYNSRIVKLINKKHQLKSSVIIDELPTIYFRGLDNLIATARSNKVAVCLGFQDFSQLRRDYGDKESKVIENTVGNIFSGQVVSETAKTLSDRFGKVLQKRQSMTINRNDKSTSISTQMDSLIPPSKISNLTQGMFVGAVSDNFDERIEQKIFHAEIMVDNEKVKRETASYKKLPQIIDFRDEDGNDRMQEEIQANYNRVKQEVQQIITDEIERIKNDPNLQNLLKHE | not soluble
MGSSHYHHHHSSGLVPRGSHMAEKPISPTKTRTRFEDIQAHYDVSDDFFALFQDPTRTYSCAYFEPPELTLEEAQYAKVDLNLDKLDLKPGMTLLDIGCGWGTTMRRAVERFDVNVIGLTLSKNQHARCEQVLASIDTNRSRQVLLQGWEDFAEPVDRIVSIEAFEHFGHENYDDFFKRCFNIMPADGRMTVQSSVSYHPYEMAARGKKLSFETARFIKFIVTEIFPGGRLPSTEMMVEHGEKAGFTVPEPLSLRPHYIKTLRIWGDTLQSNKDKAIEVTSEEVYNRYMKYLRGCEHYFTDEMLDCSLVTYLKPGAAA | soluble
RSFGLRASLVDALRKGKIQVAYQPLRVLDSGRMAGVEALARWTYDEVGPISPVTFLGWVEAMGLRQPFTRYIVQAALDGMKTRMAGDAPFYLSINVFPEDLEDESFLDFLTQSVRERELSPGSVVLEVTESAVFSTASPSVLFRRFRAAGFRIFLDDFGVGYSNLGNIIRWEVDGIKLDRIFMQSLGDFDSAAPVLDQVIEMARQLDLHLVIEGIEVRSQADYIFKRAPHAVGQGWLFGRPGPACALPAA | not soluble
MGSDKIHHHHHHMNSLSFDFSDDFRPLAAKMRPRCLADYIGQSHLLGKDKPLRRAIEAGYAHSMILWGPPGTGKTTLAEIIAQHFDAEVERLSAVTSGVKEIREAIEQAKYNRQAGRKTLLFVDEVHRFNKSQQDAFLPYIEDGTVIFIGATTENPSFELNNALLSRARIYLLKPLQADEIEQILQNALQDKQNGLGQEHFILADEVLKLLADYVNGDARYALNCLALMADMAESSPQGKVLNQALLIAVLGERNARFDKGGDHYYDLISALHKSIRGSAVDAALYWYARILTAGGDPLYVARRLLAIASEDIGNADPRAMQIAISAWDCYSRVGAYEGERAIAQAVIYLAVAPKSNAVYQAFNQAKQLAKQAKDYDVPLHLRNAPTALMKSLAYGEEYRYAHNEANAYAAGENYFPEQLQDTQFYFPTERGMEKQIKEKLAWLKMQDHASEQQRYKR | not soluble
MLLKALCIINALIIGIINADILSDPNYRIFRDISAIRQVVTLARPVKNVSTTELPTYYETNYNISRRVKRQACASSCAPLEKATTPAYEGLIATENFYITYSTDGSGCPIADLTCVGGDMATLDYLDQNGDIITLGDGGDDYNILEAQLKCFAFGWGAATATEVIDGNSLNCNVLTDIPVTTTTSTTSSTTTTTATSTTESTSTSTDSTTTESTTESTTESTSTSTDSTTTESTTESTTESTSTSTDSTTTESTSTSTDSTTTESTTESTTESTSTSTDSTTTSLPALPLILLQPSLPQNQLRSLPAHPLNLLQPSLPQNQLRSLPALPLILLQPSRQALPLILLQPSLPQNQLRSLPAHPRILPRPSLPALPLILLQPSLPQNQLRSLLAHPLILPRLSQQQNQLRSLPAHPPILLQPSLPQNQLRSLPALPLILLQPSLPLNQLRSLPAHPLILLQPSQQQNQLRSLPAHPLILPRPSLPLNQLRSLPAHPLILLQPSLPQNQLRSQPAHPLILPRLSQQAHPLIPPRPSRRALRLILPQLKLLLLRLTLQRQCQELHAVHLEVSGVNGLLTLLALQHVDLVHNKSTDVFALLKLIVEHARMGADVKIQNCNVGVCYFPLDSCCAGYTATVSGTLHICGPQPTTTTPAPNDETCCPLDGIWGAWGEWSVCTGTTCGNCGGSRTRTRVCASDSFCSCNGDTTESENCRLLSSWSEWTTTGTCNQTACGTCQTLTYTRTCLKTNGCFCMGSATKTDYCSRKPCATGTACCNSLTAQTVDGVSICGPVEAAEDETDPVPCTTTTPACCVLGGVWSEWSSGDACNDTCGNCGVTTLSRVCLSQDYNCACSGSTTKQSECAPAPCPFPRTSCCGARKKVIVGRTFECSSADDSDAAPSTLCAVDCCPAAGGYWSEWTTGGSCPTTCGSCSTVTQKRVCMSPSTCPCQGVSSRSVNCGITVCYFPDDSCCAGYSATVSGTQHICGPQPNYTTPYAPYDPTCTDNCCPETGIWSDWTSTPNQCRDYCGSCGNQTRTRTCTSDADGCPCQGPTTITEPCGTGVCYFPRLSCCPGYTATVEGNQHICGPLTTAVADPDKLNTCGVSCCPSAGIWGEWVSVSGCNDTCGSCGQETRKRKCLSLQYGCACTGNATDTSVCASSVCLFPRTSCCTGFKKMVNITGRTFYCGPLPVVPAFNPEQTTCCDPEKTGLWNDWGAWTTCSATCGGCGTQTRSRTCASAPYGCPCTGDLTETQSCAKQVCTTGAQCCAGKFVATGYDGAQYCQDNTPEVCTGTWTEWATLEGAVCNDTCGNCGIIPTSRYCFPSGCQCSGAYTGTQACANSVCLFPRTSCCAPYKKKIVGKTFACA | not soluble
MGSDKIHHHHHHEGNATTTSYFLNDQQAIDAIDGLYERFHQEGCYGRELFWEQGAACDIVWGRTRGYNSLATLAYTGDESPLRDVFSRMYSTMSRANWIIQELVKKEKGTTLTAVEKRSLGEAYFSRGWAHYLIAYRYGTDKQGVPFVRYEDFPDDYDNSIPPQQATVMDNYKLIIEDMDKAIAYLPIFESYDADNRGRAHQAAAVAFKAKTYAYWATWDATQWNNVIEMVNQLENNYNRDLAPTFAELFSSDLKDYWNAEYLWTIPSIGGALPGGTEFPGIILENKGWGKYNGWGQMKPSYDIYEEMAKDGKGNDRLVRSILEYNQEFPFFGETRKFWSTSDLEAGFMINKYMDAFKYSDPVGEGAVSANGDWPTVRVNFPIIRFAEMLLFRAEAYLMTGQADKATADINRIRLRSNLTPLTGTATMKDLYHERRCELAFEFTDHLFDLKRWNRSSNADIKTLADKELNAHPRIRRYEDRANPESAFTIIGYEDYTNKNAYQAHMMVFPYPSEEITKSNGQLKQNEGY | not soluble
MGSDKIHHHHHHVKFRVERDVLAEAVTWTARSLSPRPPVPVLSGLLLKAEAGTVSLSSFDYETSARLEIPADISVEGTILVSGRLLADICRSLPSAPVDVETDGNKVTLTCRRSSFHLATMPEAEYPPLPALPTISGTVPGDSFAQAVSQVIIAASKDDTLPILTGVRMEIEDDLITLLATDRYRLAMREVPWKPVTPGISTSALVKAKTLNEVAKTLGNSGDINLALADDDSRLIGFESGGRTTTSLLVDGDYPKIRSLFPDATPIHATVQTQELVEAVRRVSLVAERNTPVRLAFTDGQLHLDAGTGEDAQASEELEAQLTGDEITVAFNPHYLIEGLSVIETKFVRFSFTTAPKPAMITAQVDADGEDQDDYRYLVMPVRLPN | not soluble
MAFRVSVRLARDTFCLSDTVEGSVAVDVEGTSHDVAAAAPSAVRVALRAVEEAGKRHAIEHMALVTTVAGPSTAHEEAAAAALRESVNRFTTEAARRHPLLGVPVSTDSTMLVEGAASEHYTYSAGAGAASNPGGVTSETATSPPQRWEAGGHYVYPFALQLPPWLPPSYYYKPSAVKSHMSMRYTVAAFVVCGVEEADVDVVPREFRLQMTVLVPCTPLPAKAWRGSSCTSDGGAEGADKRGTCASAPLLSPVRFLLPAEIPQLLERLPAAQLVDFTVLSALPKRELQQCVERVSISPPFREKLTYHIYKYSLVLRGLLRNKPYTAVDVCITYDSGAAVLLCGRQQSVVRGGVALGLAAPHGNDSGDAPAALSSAGSGVAPGGLTVMGTVVGGEYSRAPRIHTDNHGMAPSPLGKRARGRQSPAAADPHTGDSANSLWRDGEGAGGSQLSALSACTEPAINGALRLHVRVRTGSVAVSKVRVKLLERVRCTSAPATQPNDVYTLATYTHSEKIHANTSTEFPIELALPKQFRHIAADNEKYPPPAGITTAAVHTTTWLQITFPSLHAVSEAQLAENVVLVGEDVDLTDTVPFLPCACPVRTL | not soluble

Reference: the DeepSol protein solubility set
